Laboratory results taken from US20160058881A1, “PRODRUGS WITH PROLONGED ACTION” (INDIANA UNIVERSITY RESEARCH AND TECHNOLOGY CORPORATION, priority 2013, published 2016).
Non-standard residues stand in square brackets, D forms with d. Groups on a side chain read outwards from the residue. No end group written: not given here. *: point of attachment. Docosanoyl = CCCCCCCCCCCCCCCCCCCCCC(=O)*; Phe(4-NH2) = Nc1ccc(C[C@H](N)C(=O)O)cc1; Aib = CC(C)(N)C(=O)O; Sar = CNCC(=O)O

Assays:
[1] = tested on: diet induced obesity (DIO) mice; assay: In vivo effects of daily prodrug injection in DIO mice (Example 6); design: species or system mice (strain: C57B16); conditions: s.c. daily for 5 days, 10 nmol/kg
Description: C22 acylated versions of Peptide D were also tested for their in vivo effects in diet induced obesity (DIO) mice (strain: C57B16) following daily administrations. Nine groups of eight mice (with an initial average body weight of 65 g) were subcutaneously injected daily for 5 days with vehicle only or 3 nmol/kg or 10 nmol/kg of Peptide D (parent peptide), a Peptide D with C22 acylation via the prodrug dipeptide moiety and Peptide D with a C22 acyl group linked directly to the 4-amino phenylalanine at position 10. The mice were 11 months old and had been on a high fat diet for approximately 2 months. Body weight was monitored for a week following injection and was measured on Day 0, 1, 2, 3, 4 and 7, wherein Day 0 was the day of injection (FIG. 4A, 4B).

[2] = tested on: diet induced obese (DIO) mice; assay: In vivo effects of alternate prodrug injection schemes in DIO mice (Example 7); design: species or system mice (strain: C57B16); conditions: s.c., 40 nmol/kg once, 20 nmol/kg twice, or 10 nmol/kg daily for four days
Description: C22 acylated versions of Peptide D were also tested for their in vivo effects in diet induced obese (DIO) mice (strain: C57B16) following alternative administration schedules. Two groups of eight mice (with an initial average body weight of 65 g) were subcutaneously injected once with 40 nmol/kg of Peptide D (parent peptide without acylation and without a dipeptide prodrug moiety), or 40 nmol/kg of a Peptide D with C22 acylation via the dipetide prodrug moiety. Three groups of eight mice were subcutaneously injected twice (1 day between injections, e.g., Monday-Wednesday) with vehicle only, 20 nmol/kg of Peptide D (parent peptide), or 20 nmol/kg of a Peptide D C22 acylated prodrug. Finally, three groups of eight mice were subcutaneously injected daily for four days with vehicle only, 10 nmol/kg of Peptide D (parent peptide), or 10 nmol/kg of a Peptide D C22 acylated prodrug.

GLP-1 receptor [3] = target: T1, GLP-1 receptor (Homo sapiens, UniProt P43220); assay: GLP-receptor luciferase bioassay of samples incubated in 20% human plasma (restored activity); assay type: cell-based; conditions: 37° C.
Description: To explore the possible formation of DKP and simultaneous regeneration of the parent drug, the above-mentioned peptides were incubated in 20% human plasma at 37° C. for approximately 5 days. Samples were collected at different time points (0, 1, 2, and 5 days).

GLP-1 receptor [4] = target: T1, GLP-1 receptor; assay: GLP-1 agonist activity, cAMP production in an in vitro assay; assay type: cell-based; conditions: versus glucagon receptor
Description: Receptor activation can be measured by in vitro assays measuring cAMP induction in HEK293 cells over-expressing the receptor, e.g. assaying HEK293 cells co-transfected with DNA encoding the receptor and a luciferase gene linked to cAMP responsive element as described in the examples.

T1 sequence (P43220 24-463): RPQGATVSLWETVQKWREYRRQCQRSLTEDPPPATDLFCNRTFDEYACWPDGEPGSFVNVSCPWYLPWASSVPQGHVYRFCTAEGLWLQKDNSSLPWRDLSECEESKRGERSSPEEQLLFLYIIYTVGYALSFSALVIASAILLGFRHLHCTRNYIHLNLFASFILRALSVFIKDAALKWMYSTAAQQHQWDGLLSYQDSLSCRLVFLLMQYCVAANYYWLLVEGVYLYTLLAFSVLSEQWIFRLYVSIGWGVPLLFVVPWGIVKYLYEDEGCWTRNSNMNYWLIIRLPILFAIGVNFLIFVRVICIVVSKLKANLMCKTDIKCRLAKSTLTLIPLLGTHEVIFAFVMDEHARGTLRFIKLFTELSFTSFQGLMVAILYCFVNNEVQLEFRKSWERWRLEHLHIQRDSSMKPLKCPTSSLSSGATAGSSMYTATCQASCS

Substance	Body weight ([1]; after last injection on day 4 to day 7)	Body weight ([1]; through day 4)	Body weight (weight loss compared to the parent peptide) [2]	Restored (activity relative to parent peptide) (GLP-1 receptor [3]; 0 d)	Change of activity over the time points in plasma (GLP-1 receptor [3]; 0 to 5 d)	Restored (activity relative to parent peptide) (GLP-1 receptor [3]; 1 d)	Restored (activity relative to parent peptide) (GLP-1 receptor [3]; 5 d)	selectivity for the GLP-1 receptor (GLP-1 receptor [4])
C22 attached to position 10 (via A-B prodrug): Peptide D with (d)Lysine-sarcosine dipeptide on 4-amino group of phenylalanine at position 10, C22 acyl on epsilon amino of (d)Lysine (F[Aib]EGTFTSD[Phe(4-NH2)]([Sar-dK-Docosanoyl])SIYLDKQAA[Aib]EFVNWLLAGGPSSGAPPPS; not fully specified (C-terminus))	continued to lose weight through day 7	caused the most weight loss	more total and sustained weight loss	Restored 36%	Activity Restored	Restored 57%	Restored 87%	–
SEQ ID NO: 22: glucagon analog substituting the native glutamine at position 3 with glutamic acid	–	–	–	–	–	–	–	approximately a tenfold selectivity for the GLP-1 receptor
